The record followed here is the domain aggregation screens of Martell et al. (2025).

A short description of the series: soluble fraction after stress (log2 fold change); higher = more stays soluble; pooled small domains, quantitative proteomics. The note with it: stress: pH 4. An outline of the steps:
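Following acid stress at pH 4, the amount of each small protein domain still soluble was measured in pooled custom libraries by high-throughput quantitative proteomics. Its fold change, on a log2 scale, is higher when more of the domain stayed soluble. This fold change is taken as a measure of aggregation propensity.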
For “HMGEDPYQMLGLTRQASDEEVRLAWRKLMRENHPDSLASRGVPQEFVKRATEQVAQINAAWDRIKRERG”, the “soluble fraction (log2)” value is -0.0212.
Regarding “HMGEELIEIQNLRNKERREAEAILKNLDLVPVIQEQFDDTVPINRVITTDPGPDSTVKKGTTVMIYVSKGP”, the “soluble fraction (log2)” value stood at 0.289.
The same measure for “HMGEENLKYPLLTDGSVKTTVLEAIDKDEKWLREELAKQGYDDLSKLFLVDYLGGQLVVTPY”: -0.887; for “HMGEESIAELISNPKLSDAKRTVILDLLSRGLTVDQIKPYIQSDDPYTAEQLQFELYKLFFTQI”: -1.34; for “HMGEGRVRLAQEAANRFMTAMAGDRPGFEEAGRALFAGDRARFHAETEGWPEDIRDHARRLAEPALQ”: -0.0593.
As to “HMGEIILVPDVKAQGVSDARYTLNQAGLDAVIADSSYNRNSPPGAVLEQMPAPGSKVKSGHAIYLIINTT”, the “soluble fraction (log2)” value is 0.0604.
Next, “HMGELTSILVATKQIEPGETLSSSNTQVKSWISDLIPEGAITNPESVMGRTVSSVIGVGMPVVSLHLR”: 0.0354; “HMGELVIPPLRERTVVDAVAEAERLGFVVQVEPVASSLPEGRVLGQSPEPGTRARKSQVVVLQVSRG”: 0.00536.
“HMGEPLTVVAAAGGDRLDRWLAGQLAGRSRAEIQRWIEAGQVTLAGRSLKASYRLSAGDAIDVAIPPPE”: the “soluble fraction (log2)” value is -0.0638.
As to “HMGEPVEIEEPITVRSLSEALGLKSSAIISHLMRQGVFATINQNLDKETAELIAAEYGIELRIK”, the “soluble fraction (log2)” value was -0.0783.
The same measure for “HMGETDDDFRELEEFVEKTKFDKLGTFMYSKEEGTPAARLPEQIHGNTKKSRYNKIMSIQQKVSNEN”: -0.897.
Consider “HMGETPEILRDWEAAQNAVNDMLSKYAPGGYMGKIIYPLLTPLKERLEAGERTPDLYNAIVEAT”, for which the “soluble fraction (log2)” value is -0.763.
Next, “HMGETYTIPDVRGYTLEDAMELPEIKENGFTIIEGRQIVDADVPVGQIISQTPEAESIAKSNVKEITVNIS”: -0.367.
The same measure for “HMGEVPVETKDGIKVHVHTVDKSQTAYGISRLYNITLNELYESNPEAKLELSIGQKLYFPVK”: -0.426.
Turning to “HMGEVVRAPMPGNVLKMEVAQGQEVEEGDLLLVLEAMKMENDIVAPKGGIVIQLVVDKGMVVETDDPLVVI”, the “soluble fraction (log2)” value is -0.509.
In the case of “HMGEWNSVFSVPSSVVDKHLKTASSVYVKVLLVILRNAGNRISDQQISEQLSVPVDEVQEAIRYWNAAGIF”, the “soluble fraction (log2)” value is -0.816.
Consider “HMGFAANLSRLMEYHNISMYRLAKEVGVHQTTVKNWLEEESEPKIAALEKIVGLLGVSYDELLG”, for which the “soluble fraction (log2)” value is -1.72.
The same measure for “HMGFLTGNTQGEVNRKTKNQMVNIFLPTTPNPTSGFLLFVPKKDILRLTMTVEEGIKMIISAGMLTPS”: 0.0322; for “HMGFTDREREIIRNDLVATGRELFGTFGLKKTSIEDLTKAVGIAQGSFYTFFNSKEELYLEVMDREGEA”: -1.47; for “HMGGALSPDFGWLAMIDPDEGRAITLYDIASGEAIAVLDTHEARVAALAWSPDGTRLASGDQNGLIVQWEI”: -1.43.
Consider “HMGGEEPYGSGSLRLAAGAVVPSGYTIKGNEDSMLYHTTESPWYKQTIAEVWFNAESAAQRAGFTRWDAKD”, for which the “soluble fraction (log2)” value was -0.672.
The same measure for “HMGGEIGSGKNGYVAFYKGKKVDVKADSMYGAQKTAAKYFNAKKEYDVNVVLAEVDGKQYVQS”: 0.151.
Next, “HMGGGVERLTPRQREVLGYMAEGRSNSWIAGAIGFSEKAVVQHTSKIYDALGLAVDADDHRRVLAVLRYLT”: -1.07.
The same measure for “HMGGKWKLRILWHIHHGDTRFSTLKRGIPEISEKILAQQLRELEEHQLIKRRVVTVMPPHVVYEL”: -0.518.
Regarding “HMGGLAEIILNAIEIEGGFLPITDKSAPELIQSRLGMSKKAFKEAVGTLYKNRDIAIEPNGLRKI”, the “soluble fraction (log2)” value is -0.162.
Next, “HMGGLALAEREVVEWLSQRNLLPSPDVVARAAAHPDGLGWLERSLAVLEGPRLFLGLGDLVPEP”: -1.02; “HMGGLAVQLVHAMTDQIRSGRLKAGDKLPTEAAIMKDFGVSRTVVREAISRLQASGWVDTRHGIGTFVLHQ”: 0.188.
Next, “HMGGLIEPLSARELEVLELMSLGKTNQEIARDLVVASGTIKAHAASIYRKLDAANRTEAVTHARELGIL”: -0.814.
The same measure for “HMGGPEVLELEDVKVGSPGPDEIKVTNHAIGLNYIDTYHRSGLYPLKLPSGIGLEAAGKVEEIGSNV”: -0.511.
With “HMGGQEEALNRLVLRELLGTLEKKERDLIVRRYFYDQTQTKIAEALGISQVQVSRMEKRILKKMREGF”, the “soluble fraction (log2)” value was -0.833.
As to “HMGGRSARVRRAVLDAVVELLGEGGVRAVTIAEVAKRSGVNASSIYRRWRSIDALILDAAQDL”, the “soluble fraction (log2)” value was -0.578.
Next, “HMGGSDIYLGAFNIPQGSVRVTSGGQALTEGKDFTIDYNLGSVKIINQAILNSGIPVSVSYENNAG”: -0.294.
Next, “HMGGSLADAKRFLADLLADGPVPAKGVRADADGAGHTWPTIRRAQKALGIEATKTGMKGGWVWALPR”: 0.00461; “HMGGSVYTVQKGDTLWSIAKEQLGSPLRYAEIYDLNKDVIEEAARGRGKKDSSNGHWLVVGTSLQIPEAT”: -0.077.
The same measure for “HMGGTAGKINAIGVNFRTGPSTSYTSLGLLGKDTAVTVIGTSGKWYKVTIVSTGKTGYVYATYVNLTP”: -0.102.
For the sequence “HMGGVIEDDRGQWAHPGEVTKINSNNITMKGVDFPVLGISDTGDKKMMQPGKDYKFDGNSVTEYPMA”, the “soluble fraction (log2)” value is -0.5.
The same measure for “HMGGWEEGVYVVREGDTLSDIVHDAVKGTEIHPDFILNAIVRVNPSAFVRGNPSWMLAGKKIK”: -0.373; for “HMGGYVTGTIDLTKFGYAFVITEESEDDVFVAARNLNTALHGDQVKVLLYARHKGKRPEGEVVEIISRSRA”: -1.4.
As for “HMGHEEPITFDRLPQAAQTFLKTHFDTLTVAYIVADRKFMGVEYEVKYTDRTEVDFRSDGQWESV”, the “soluble fraction (log2)” value was -0.443.
The same measure for “HMGHKTLTVELQEKIENLPQTLDKYNLTLGNNKMSVDYTYSVKEKQTGITNLLQDLKEHKFDIVYLVGQDN”: -0.613.
On to “HMGHLSNENAGRLLDRVLNDKIHAIMLGHLSKENNMPELAHEAVRMEITMGESRYKADDFPIYVA”, for which the “soluble fraction (log2)” value was -0.00322.
Next, “HMGHTKLVVDIVEELKLEQGALLPILHAIQDELGYVPTKSVPFIADSLNLSRAEVHGVISFYHYFR”: -0.741; “HMGIAWGMLREQVAASDVSYRSEVLDILDRTPVWIYDAEGKIVDGRKKRLMDLQGGEPYRHMLEHFFPDLR”: -1.96.
Regarding “HMGIDAIDNFVSKIIMKIEGLGESEVPTSTIGKFIMEGLQYLDTVAYVRYASVYKNFKEAKDFEQFVGSL”, the “soluble fraction (log2)” value was -0.566.
Next, “HMGIDRPLFTLAQFARQIGEQVKISLSLPQDGRRRLQGKVLSVGESGIVLDVDGREFTVAIGNVDKARL”: -0.197; “HMGIDSSVYVEARYELGHLYLKQKKYAAAYASFKEILDMYASTTPGVLPGAYNKLAEIGMKRIPKNKL”: -0.182; “HMGIIQAQIPGLVSRLFVKKGDKVAVNQRLFILEAMKMENEIDSPIQGMVEKIHITTGSKVEKGDLIMEIV”: at least 0.43.
Next, “HMGIIYGKNPVLEAISSGTTINKIYAQTSNKEIDSVIKEALKRKIIVVNTDKQKLDKMIDGKNSQGIIASI”: 0.36; “HMGIKAADIVTNDIQFNTQAQFDKYKDLYPTLGWGNYDPNKTYTMQGFKNKLKPNELFTGTPNLKIEDT”: -0.105.
Consider “HMGIKDRIVYIMEKEKLSIPLFAKKIGIGPSTLLHIIRGKNAPSLQVVQAIHKAYPDIDLNWLI”, for which the “soluble fraction (log2)” value was 0.0346.
